Reference: article PMC6391106, “Hyperfunctional complement C3 promotes C5-dependent atypical hemolytic uremic syndrome in mice” (The Journal of Clinical Investigation, 2019)

B1: murine C3b Asn1115 (complex)
chain 1: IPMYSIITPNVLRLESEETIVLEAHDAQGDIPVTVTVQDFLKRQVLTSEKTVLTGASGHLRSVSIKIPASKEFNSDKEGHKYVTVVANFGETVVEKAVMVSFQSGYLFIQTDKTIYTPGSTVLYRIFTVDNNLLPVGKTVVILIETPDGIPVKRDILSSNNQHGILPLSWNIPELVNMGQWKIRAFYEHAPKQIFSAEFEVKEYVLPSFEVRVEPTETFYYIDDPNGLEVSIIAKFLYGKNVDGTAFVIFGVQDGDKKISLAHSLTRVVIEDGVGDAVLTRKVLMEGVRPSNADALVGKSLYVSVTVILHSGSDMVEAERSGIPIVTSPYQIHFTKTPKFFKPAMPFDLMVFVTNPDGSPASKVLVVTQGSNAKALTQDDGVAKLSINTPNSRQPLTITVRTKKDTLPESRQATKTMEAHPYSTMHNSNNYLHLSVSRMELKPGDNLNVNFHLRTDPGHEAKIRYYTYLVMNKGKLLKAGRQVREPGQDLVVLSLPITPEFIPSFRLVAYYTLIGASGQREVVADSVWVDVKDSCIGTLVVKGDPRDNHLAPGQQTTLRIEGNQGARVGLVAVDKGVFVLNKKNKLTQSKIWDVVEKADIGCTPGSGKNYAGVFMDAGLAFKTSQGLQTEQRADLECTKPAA
chain 2: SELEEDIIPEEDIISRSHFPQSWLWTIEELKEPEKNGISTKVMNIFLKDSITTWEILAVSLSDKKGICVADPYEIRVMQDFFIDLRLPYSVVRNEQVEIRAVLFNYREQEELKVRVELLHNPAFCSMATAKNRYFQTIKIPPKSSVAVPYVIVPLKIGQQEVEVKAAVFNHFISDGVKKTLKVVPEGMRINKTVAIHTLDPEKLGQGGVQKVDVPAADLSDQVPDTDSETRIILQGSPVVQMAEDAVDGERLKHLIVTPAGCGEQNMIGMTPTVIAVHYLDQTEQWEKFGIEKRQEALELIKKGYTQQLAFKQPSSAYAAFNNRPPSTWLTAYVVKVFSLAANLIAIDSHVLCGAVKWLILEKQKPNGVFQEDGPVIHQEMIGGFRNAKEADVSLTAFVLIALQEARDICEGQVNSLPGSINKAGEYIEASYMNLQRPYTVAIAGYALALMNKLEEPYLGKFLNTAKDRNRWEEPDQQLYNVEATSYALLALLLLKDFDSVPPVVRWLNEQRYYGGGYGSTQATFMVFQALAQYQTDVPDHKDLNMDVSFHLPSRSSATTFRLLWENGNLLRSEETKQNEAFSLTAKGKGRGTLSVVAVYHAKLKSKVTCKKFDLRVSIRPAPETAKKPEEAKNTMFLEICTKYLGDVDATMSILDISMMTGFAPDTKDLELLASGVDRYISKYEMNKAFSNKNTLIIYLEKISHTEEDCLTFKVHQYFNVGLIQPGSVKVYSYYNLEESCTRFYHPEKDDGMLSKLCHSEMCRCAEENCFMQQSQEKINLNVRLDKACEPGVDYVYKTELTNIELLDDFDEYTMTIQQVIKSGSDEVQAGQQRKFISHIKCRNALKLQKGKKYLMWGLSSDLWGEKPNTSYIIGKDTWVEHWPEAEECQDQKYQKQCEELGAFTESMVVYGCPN
modifications: C3b made from plasma-purified C3 by factor B/factor D cleavage (C3a released); beta and alpha' chains disulfide-linked; thioester (Cys1010-Gln1013) hydrolysed; N-glycosylated; amine-coupled to CM5 …
B2: full-length mouse serum-derived FH (natural protein, UniProt P06909 19-1234, looked up)
chain: EDCKGPPPRENSEILSGSWSEQLYPEGTQATYKCRPGYRTLGTIVKVCKNGKWVASNPSRICRKKPCGHPGDTPFGSFRLAVGSQFEFGAKVVYTCDDGYQLLGEIDYRECGADGWINDIPLCEVVKCLPVTELENGRIVSGAAETDQEYYFGQVVRFECNSGFKIEGHKEIHCSENGLWSNEKPRCVEILCTPPRVENGDGINVKPVYKENERYHYKCKHGYVPKERGDAVCTGSGWSSQPFCEEKRCSPPYILNGIYTPHRIIHRSDDEIRYECNYGFYPVTGSTVSKCTPTGWIPVPRCTLKPCEFPQFKYGRLYYEESLRPNFPVSIGNKYSYKCDNGFSPPSGYSWDYLRCTAQGWEPEVPCVRKCVFHYVENGDSAYWEKVYVQGQSLKVQCYNGYSLQNGQDTMTCTENGWSPPPKCIRIKTCSASDIHIDNGFLSESSSIYALNRETSYRCKQGYVTNTGEISGSITCLQNGWSPQPSCIKSCDMPVFENSITKNTRTWFKLNDKLDYECLVGFENEYKHTKGSITCTYYGWSDTPSCYERECSVPTLDRKLVVSPRKEKYRVGDLLEFSCHSGHRVGPDSVQCYHFGWSPGFPTCKGQVASCAPPLEILNGEINGAKKVEYSHGEVVKYDCKPRFLLKGPNKIQCVDGNWTTLPVCIEEERTCGDIPELEHGSAKCSVPPYHHGDSVEFICEENFTMIGHGSVSCISGKWTQLPKCVATDQLEKCRVLKSTGIEAIKPKLTEFTHNSTMDYKCRDKQEYERSICINGKWDPEPNCTSKTSCPPPPQIPNTQVIETTVKYLDGEKLSVLCQDNYLTQDSEEMVCKDGRWQSLPRCIEKIPCSQPPTIEHGSINLPRSSEERRDSIESSSHEHGTTFSYVCDDGFRIPEENRITCYMGKWSTPPRCVGLPCGPPPSIPLGTVSLELESYQHGEEVTYHCSTGFGIDGPAFIICEGGKWSDPPKCIKTDCDVLPTVKNAIIRGKSKKSYRTGEQVTFRCQSPYQMNGSDTVTCVNSRWIGQPVCKDNSCVDPPHVPNATIVTRTKNKYLHGDRVRYECNKPLELFGQVEVMCENGIWTEKPKCRDSTGKCGPPPPIDNGDITSLSLPVYEPLSSVEYQCQKYYLLKGKKTITCRNGKWSEPPTCLHACVIPENIMESHNIILKWRHTEKIYSHSGEDIEFGCKYGYYKARDSPPFRTKCINGTINYPTCV
notes: mouse complement factor H, full length, from serum; also called murine FH; mouse FH

Tests used:
Assay in all cases: SPR; BIAcore S200; murine C3b (WT or Asn1115) amine coupled to a CM5 chip (930 ± 10 RU); analytes in 2-fold dilution series in HBST (10 mM HEPES, 150 mM NaCl, 0.005% Tween-20, pH 7.4), 30 μl/min for 200 s; steady-state model
Conditions in all cases: both partners purified
[1] = target: T1, recombinant murine FH SCRs 1–5 (mouse)
T1 construct: mouse complement factor H, short consensus repeats 1–5; also called recombinant mouse FH1–5; mFH SCRs 1–5; source: recombinant

[2] = target: T2, recombinant murine Crry SCRs 1–5 (mouse)
T2 construct: mouse Crry (complement receptor 1-related protein), short consensus repeats 1–5; also called recombinant mouse Crry; mouse Crry; source: recombinant

[3] = target: B1

T2 sequence (P01027 749-1663, change not shown, chain 1 of 2): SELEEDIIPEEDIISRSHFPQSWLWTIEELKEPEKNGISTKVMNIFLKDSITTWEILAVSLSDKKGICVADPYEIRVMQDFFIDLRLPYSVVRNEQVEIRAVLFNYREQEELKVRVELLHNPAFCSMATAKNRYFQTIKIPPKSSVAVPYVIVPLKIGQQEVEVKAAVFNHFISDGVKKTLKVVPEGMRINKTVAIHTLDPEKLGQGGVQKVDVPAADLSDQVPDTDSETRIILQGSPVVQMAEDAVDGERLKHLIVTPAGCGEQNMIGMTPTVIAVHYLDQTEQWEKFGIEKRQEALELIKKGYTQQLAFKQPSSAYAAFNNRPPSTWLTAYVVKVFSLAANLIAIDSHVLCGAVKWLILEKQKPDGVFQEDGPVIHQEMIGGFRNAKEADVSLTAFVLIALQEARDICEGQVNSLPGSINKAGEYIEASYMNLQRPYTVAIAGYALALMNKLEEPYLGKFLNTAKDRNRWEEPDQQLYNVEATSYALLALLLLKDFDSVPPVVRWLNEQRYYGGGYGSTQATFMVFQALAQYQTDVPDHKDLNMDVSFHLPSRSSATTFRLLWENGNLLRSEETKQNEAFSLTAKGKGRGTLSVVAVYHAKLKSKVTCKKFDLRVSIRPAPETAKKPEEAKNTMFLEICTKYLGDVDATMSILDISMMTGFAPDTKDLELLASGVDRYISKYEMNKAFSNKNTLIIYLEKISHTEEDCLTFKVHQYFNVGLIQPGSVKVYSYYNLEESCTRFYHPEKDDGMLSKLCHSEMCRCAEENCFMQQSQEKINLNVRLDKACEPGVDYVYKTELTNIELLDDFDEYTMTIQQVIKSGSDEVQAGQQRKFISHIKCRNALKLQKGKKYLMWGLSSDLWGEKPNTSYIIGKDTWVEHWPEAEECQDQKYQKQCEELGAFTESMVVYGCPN
T2 sequence (P01027 749-1663 D1115N, chain 2 of 2): as the sequence (P01027 749-1663, change not shown, chain 1 of 2) above, with D367N counted along it

| Kd [1] [µM] | Kd [2] [µM] | Kd [3] [µM] | Binder |
| --- | --- | --- | --- |
| 3.1 | 3.5 | – | B1 |
| – | – | 3.7 | B2 |
